Results taken from the DeepSol protein solubility set.

Experiment: soluble on expression in E. coli; label from the status in PepcDB or PDB records

Sequence	soluble on expression in E. coli
MAHHHHHHMELLTSVFQRHPPALRLHRELTIALADGDSARAADLASVLATTVQRVVAAEADSSDAATPPEGHANTGHFSQRDIPVAGLEDVEEAVEKTRQTLLREATVRVSSGVARDTGGSAISSEPAAAERSLPFWRDPERLCVTILESMFETEVLGGESQDTLTAAGNRAAEHEAEQVRILDAYLDKEGARWNAQKAAIAKIVLDVTRSLGLTPEDLQAFEGISASAGAGAAAAAGERKLNVLRHSNLVIRGEMPSAPLSSTASECVAEGVETELRALEERMSSLGQPLTPWEVRMARYELQMSKSKMRYVVGVHKELQLALDHSAALRASLREKSTAEVTFTTGTEVFMAEVIRALNEGADAYSANVTAEGAQLTVSNVKAREAVESPVLPFTFMLKGSLWFTTAPSRPPSSSSD	soluble
MAHHHHHHMFFCPFCSTLLLVVPHVEGNALVCATCRYVHSVASASPQVPRNAFGEPILTIQHSFVAHNRQLMDAEEDPAMEAAASSSAAACHTTAAFTPVVKAETSAEGGQITTIPCQNEDNPCQSTKAYFIQIQMRSADEPATVFFKCVECGHQWRQD	not soluble
MAHHHHHHMFLIVDAGDMLVEGLFVEANNTTLHYREKFIVKNTDGSMAINAASMTRQLHPRKQMHLHPSSLPIAIHQDNRTPLQHMLRGTHHMQRPTVVSCNTPTMAIMKGTEDVVLRRDTTTRHAGAQFRALQDLLQLKRARAGHTHLTSRSKWIGLDRQKRTPHRF	not soluble
MAHHHHHHMFLRVPLFVAHLRLLPRQRIYMGAHCGGNIWANGRSVSVHFMVGWCYTMSRDVAEASVSFKPLRRLAHTPYSKERDEEFSSIGMGHEDMMVGHVLLDEVKYQPLIHVKVLPCHFLEARSDTGESQVVPTSMCVHHIREDDYAALMARFGNDTSPVARLWRVSEDVIYPSCD	not soluble
MAHHHHHHMGCGGSKPNAVSRDVEEKALYLRGIKESIDKAEGNMLATLHALQALMRSYESTSYSFVELAHGTDGNTSLKAKTFESDMRTLKDSGIMPKLQKDLGQSVSSLGKDIRAKHDKANVVYREMTQANDAYCKLRERVNGIEKSYAKKNKPVSECPSYTKNCKERDVCLARYEGLKKVFLTLVEELRTLIRSYVTAGLTRYAFSTADYAQQLVNSLQKYKSE	soluble
MAHHHHHHMGCTASKTKTPAANVASKGADEFYALATTERHPVAEKLLEEWVLFVDAQARRNAGDSSAARAYETRLKEVWADTTNRPVTHRSVDYVGKMFLEYIKEDLSHRGWGGNFDYKVAGVVTQGFLKANANIDTALSDTPEEVTWEIKIHYDSLGVS	soluble
MAHHHHHHMGDNGGMVLFKAIAGAIEDGEDKLEYLNLEVNELGEKTAKAMQRVLSSSTALKTLRLSYNSFGGASKYIMEGLAENKYLRSLFLSFCEIREADGAAIGTALTANSTLQHLDLSNNKLKDAGSKCIAEAMKTNEGLISLNLSCNKIADDGGKAIALFLTSNRTLRELNLRRNCMSNATGELLDDQLRGNMTLEKMNVGFNDFRYKSLIGHRTTLARNAEKNKSLIVPKLRAEIEGLSFKERDLSQAEDEIEMERRIIKDRSEQLLRRNEEARVASEKARREIADLEKNLAAVRVRFESAEEVLLRTEERVSNEMAEISGRKANMEARVQQEREKVDRLQREMDRVRRQLKQLEEAEASRLKPLFLEFGIAEADRDREAKECQYEADKLAALELQRKELEKKLGLSLPVAGGVSAPTAKKRK	not soluble
MAHHHHHHMGFWVFDRVADGFLFRGRRQLSRLHQRNAMLDANGMPLTGDLAAEATTWRSQHAFSGRCGLSVKRSPEPHDNRDEARRNGGGDVPHPEKMLPSYECIISRSPNDYRAWAVDFHLQSTSEDPHVLLSVAPYYAPLQSNFVEGGRSWHPPTTEEQEMYDKRMLETPLIWEEPMTLSLDCTNSGMFLWSEEWKIFGEKIADNCFSRRSQSRGGDDSVDQMGGVSGVREGPYEAFVRLSWRMMSAGENDMYGGEKRSLSDASVRNIIVGPCQGEMTVFLRTSSSDQEEGDVSVPRQINGTGNVGAHGGESVSSGVQVWKRAGGRAVLGDDIPNEIYFTPYVTLMDAGDEAILL	soluble
MAHHHHHHMGIYSDTDDDSPIGIEVVGEASSDSEEPNPHSTTKRKVSGAVDHNNGYNQKKNKRRRLKNKWEENPQLHETPDEEQISNVKKRVYVLDTCSIVEHIEWSILEEVAKYYLIIIPKKVMDELGKMEGGRGSTCNRVLNKLENEHTSNKMNVGFRLQRKNDKDKNVLSAARVNDDHILSCACSFRNEHDVVLVTSDNILKLKAYAEGIPTVSTLKDVTRLTNGLRGGKFE	not soluble
MAHHHHHHMGKPKYLKKKQAAAAAGSEDGADKDVSDNTENTNGSPTTTNALGKQSEAAKEEPHSSGAMVSFANPVYRQGVNDILVEKLDISYQGNAILENATLNLVSGHRYGLVGPNGCGKSTLLRVLGCHEIPFPSHVDRYYVSQEVEASDMSALDAVLAVDKEREKLESEMEDLALGDQEDPHVLSRLDDIYKRLDELDADTAAARAGKILFGLGFTKEMQRRPTKAFSGGWRMRISLAQALFINPTVLLLDEPTNHLDIEAVVWLENYLSKFKKTLFMVSHSQDFMNNVCTDICHMHLKKLNCYDGNYDQYCITREEKESNQMKKYQWEQNQIKNMKEYIARFGHGSAKLARQAQSKEKTLAKMTRGGLTDAVVKDSRINFEFPCAGPLPPPMLQFREVSFNYPGRPSLFTNLDLGVNMDSRICLVGPNGAGKTTLTKLMCRELEPTAGYVAKNAHCVMARFHQHFVDQINMDLTPLEWMSQEYPDVTQPPILRSALGRFGVSGKAQMTPMKTLSDGQKSRVVFAWMAYKRPHFMILDEPTNHLDIESIDALADAINNFEGAVVVVSHDLRLLAQVADEIWIVEQGEAKRFNGDIADYKEHVQNEVNRMMQNYAASL	not soluble
MAHHHHHHMGQGFSRAQMEEYKELVKDRFSEEAIEFLFMKFHKAAPEGVMTPVEFKRYIDSTGVYKNYRRTHLASWFPSYAKYTHSKGGNRAVRKTSAQILDREMYLHLFRAYDRDCDGVISFREFLLYHLAVMYSTEELFVVVFNAYDDDQDGYLSLDDIRNTITAATRYVGDCDVEDQEVQRVIDEEAQRLMFFLDVRKDGRIRRDDMRLITQKHPEVLEKMKNLM	soluble
MAHHHHHHMGSSSPSSLLPPALMPCHVWEGREEGISVETARGRREVEINRKKGHMASPKEMYEKECRALGVPPNSGLLRMLPESTVNLSGLSVMHLGHNFLGDRGVVPFVHIIAHASSLHTLNLRENGIGNEGVRVLCRGLRRLPALKVLELSGNPFTFLAARQLVYLCEDSPVLSVIGVEGTLMTEKLKTSIIHRIREAVKRREARKQLSQQPSADRDDGQKDMAEGVAEAEGKVVERAAPIAAEEATTLRSRNVGGPCLRKSVLSLVSQDSMSTAMSSKFKKNEPDDQAGPRGANEFASPCSPLPPPPPDDAHQSPLWFDASEDEEQKEEKKEISVATAENDEKMMIDTAGSISFLVDVEELRANSVERELRAQEEMLPWQVSRADDPLRSLHSTHTRIASHRTTEKRSESGTAISFPSSFTLELRTAEAEGKLAECTKSTKGDDFLDLLFGSEVD	not soluble
MAHHHHHHMGTLEAQTQGPGSMAKTMKAAVVRAFGKPLTIDEVPIPQPGPGQIQVAIQASGVCHTDLHAAEGDWPVKPNPPFIPGHEGVGFVSAVGSGVKHVKEGDRVGIPWLYTACGHCRHCLGGWETLCEEQLNTGYSVNGGFAEYVVADPNFVGHLPKNIDFNEIAPVLCAGVTVYKGLKVTDTKPGDWVVISGIGGLGHMAVQYARAMGLNVAAVDIDDRKLDLARRLGATVTVNAKTVADPAAYIRKETDGGAQGVLVTAVSPKAFEQALGMVARGGTVSLNGLPPGDFPLSIFNMVLNGVTVRGSIVGTRLDLQESLDFAADGKVKATIQTGKLEDINAIFDDMRQGNIEGRIVMDLTQ	soluble
MAHHHHHHMGTLEAQTQGPGSMFELSDLPYEGLEPYISSHLLDRHYNGHHKTYVDVLNKLVVGTEFEGLGNESLGDIVVKAHNSGSAGRAIFNNAAQIWNHDFYWQSMKPNGGGNPPEKLREMIEHSFGSVEGFNNAFTTSGLGQFGSGWVWLVYDEDAKALKVVSTANADSPLLTQGQLPLATMDVWEHAYYLDYLNLRKKYIDVFLEHLLNWDFVLGRLEDAGVL	soluble
MAHHHHHHMGTLEAQTQGPGSMKISFSEIIHNALKEDLGDKGDITTNSILINEKVNFAINTRENLVVCGIPILEEVFNMNKEHVKYEIHKKDGDITGKNSTLVSGEALAIYLLPIERVILNFIQHASGIASITRQFVDEVSGTKVKIRSTRKTTPGLRMLDKYSVCIGGGESYRDNLCDGVLIKDNHIASCGSITLAIQRLRKNLKNEYIAIECDNISQVEESLSNNVDMILLDNMSISEIKKAVDIVNGKSVLEVSGCVNIRNVRNIALTGVDYISIGCITNSFQNKDIGLDIEYNNNK	soluble
MAHHHHHHMHACVAAIAMGEVGVYDDQRSSGQEISLAAAAAAGVQYARSSRTAFSCTSKSARQGGGGAVPIENLLPPLIEQPEKSLRAARGDTGAAITEDERAAIAMETWEHYMATAREATSAEGASMMPSATAAATMMSSASCANAAHSCTSAVAAEAPLVPIRSFPDALCALIERCTATPLVCLTLSDQQCQTTAVRDLLRALLTIMQRIEDSAVAAIDCEIALASHSSSSGHHTPVAATAALDLQAVRLAAVKGISRVLTTYLDGADGSAQPPTKASETFTAGLGHLDILSVFEDVVHQWAHVLTVLERGKELIGASAGVGKGSDVKAEDDLSGVPESPQGHRSGKDGTGAAAQLHWVLRIAYQIIAAEQREASRGSAEAAPRVRLLPPLLVPVALRTLSLITTVIPLVCRPASYVQLCVDVLWGASLLTPSESSRQLMYGSMGVAGLAGASNGSCEGEADVSRGAEASPPAMDLFLALLHQFNEGHSAAHRELRDDLVCLFAFLLRCDIQYVENKLVAQSCRAEWSPTNVFGVNSAVSPPPRLRSKLTPRRSISTSPLWRRSTLWRRCCSRQRAGPNSQRRCTRPQPQPQRRFSPPTSIEANLLR	not soluble
MAHHHHHHMHMFTNDWKSILAPLKSCRIKQQFDDREFLADFAMGLKLDFNNKYLVLDASTELLKFTAIESSDCCNRNCLPKMCIPINMKILTYGRELSRPDIVVEKDCSCTMLCLNRPTIKMYDFSNNNNKELIGTIKAPFSCCSYKFDLYDSAMRKIIYMDDTCCQLSILFPCPCGPFKFSNFFLRDAKTHEKVAHLQKEVPFLKFVKRDIDNYTLNFEQVQNPEWKMMLLAFSLFMDYIYYDRK	not soluble
MAHHHHHHMHRRTLRRLQQVVQNPPVGSANIPSPYATEGGHVPIWSIVNGFVQKRNWVFRNPEWCDLCKEPVALWVNHHGRKDHALMDMHYTQMVEFPRRWNPEEILAVFLEELGLSVEAYQKYYGGYEREHRNELYAMLVALEEAKMLHFGEPRDTYLYRMQGGLRGMDHQGALVLHRYILGPFMRIYPNGHIQDYSNLVDFVTCAYNMETVYDLCGFYTLDKVALKADYKPSSPAALGLGGIAVHSSATHGFAQQAMEKPQQSPQPQPQRHMTVGTGGRSAADMEEEAFSRKAVFVRQLLGQLRWLTLPDEEHPAGHMFPQHLMFLGEICLKSLVAEIVAARLCEYMVRVEPVWRDHGYERVKLDVDKIMRKENDILPEPVKFFYRPMSPKMDDLYSTNRGNLDEALEKAVVAPVSGKGA	soluble
MAHHHHHHMHSAALRRREEAAKSLAELEPEYAQIVADLPALEARKAAAEKEQEALWAELGMKQDESEAGLYESEFSDEATSCIRWCETGGCIGTGPRESHRDKSCSNVIDRDSSGYCECKTNDKKDEPEDDEEDVEPEAEGEGTEVRRGTVTYRFSSGHPRFTCMYVCDHSGEAGVDQQPEKLESFTILGELREASKSLERKKNRLEEVKGAMEAAKKLLSSPTITTEDLLRTLEKEEFTIDFQEYTYAIVMFDTVYQRDMGMTTGGNLLGLWKSFAENTYSVWAKDAHDLTQMIYDNGLKCWNGVVRNVEVHLVCGPENKLMTVEEPSMCNYRMVFETPAMCDD	soluble
